Assay results from PMC10727010 (Structure (London, England : 1993), 2023).

Legend:
[1] = molecular target: uniformly 2H,13C,15N-labelled proliferating cell nuclear antigen (PCNA), used in NMR (human, UniProt P12004 1-259, uniformly 2H,13C,15N enriched); test: NMR titration
PCNA = conditions: PIP or APIM mutated; local ultraviolet irradiation; ref [5]; cited from earlier work

Sequence of uniformly 2H,13C,15N-labelled proliferating cell nuclear antigen (PCNA), used in NMR (P12004 1-259): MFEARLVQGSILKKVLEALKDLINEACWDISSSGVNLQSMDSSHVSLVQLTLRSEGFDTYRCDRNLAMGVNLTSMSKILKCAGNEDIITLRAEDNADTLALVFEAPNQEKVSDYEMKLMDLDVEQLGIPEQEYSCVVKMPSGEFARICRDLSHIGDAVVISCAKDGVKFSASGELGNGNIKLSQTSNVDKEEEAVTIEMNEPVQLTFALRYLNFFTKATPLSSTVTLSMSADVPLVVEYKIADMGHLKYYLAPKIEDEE

Molecule	Kd [1]	co-localization of PCNA and FBH1 on motif mutation (PCNA)
GSQRCIPEFFLAGK [FBH1PIP peptide (residues 55-68 of F-box DNA helicase 1)]	7.8 µM	–
KDKFIRRWVHK [FBH1APIM peptide (residues 805-815 of F-box DNA helicase 1)]	276 µM	–
F-box DNA helicase 1 (protein, UniProt Q8NFZ0 1-1043, looked up) F-box DNA helicase 1: MRRFKRKHLTAIDCQHLARSHLAVTQPFGQRWTNRDPNHGLYPKPRTKRGSRGQGSQRCIPEFFLAGKQPCTNDMAKSNSVGQDSCQDSEGDMIFPAESSCALPQEGSAGPGSPGSAPPSRKRSWSSEEESNQATGTSRWDGVSKKAPRHHLSVPCTRPREARQEAEDSTSRLSAESGETDQDAGDVGPDPIPDSYYGLLGTLPCQEALSHICSLPSEVLRHVFAFLPVEDLYWNLSLVCHLWREIISDPLFIPWKKLYHRYLMNEEQAVSKVDGILSNCGIEKESDLCVLNLIRYTATTKCSPSVDPERVLWSLRDHPLLPEAEACVRQHLPDLYAAAGGVNIWALVAAVVLLSSSVNDIQRLLFCLRRPSSTVTMPDVTETLYCIAVLLYAMREKGINISNRIHYNIFYCLYLQENSCTQATKVKEEPSVWPGKKTIQLTHEQQLILNHKMEPLQVVKIMAFAGTGKTSTLVKYAEKWSQSRFLYVTFNKSIAKQAERVFPSNVICKTFHSMAYGHIGRKYQSKKKLNLFKLTPFMVNSVLAEGKGGFIRAKLVCKTLENFFASADEELTIDHVPIWCKNSQGQRVMVEQSEKLNGVLEASRLWDNMRKLGECTEEAHQMTHDGYLKLWQLSKPSLASFDAIFVDEAQDCTPAIMNIVLSQPCGKIFVGDPHQQIYTFRGAVNALFTVPHTHVFYLTQSFRFGVEIAYVGATILDVCKRVRKKTLVGGNHQSGIRGDAKGQVALLSRTNANVFDEAVRVTEGEFPSRIHLIGGIKSFGLDRIIDIWILLQPEEERRKQNLVIKDKFIRRWVHKEGFSGFKRYVTAAEDKELEAKIAVVEKYNIRIPELVQRIEKCHIEDLDFAEYILGTVHKAKGLEFDTVHVLDDFVKVPCARHNLPQLPHFRVESFSEDEWNLLYVAVTRAKKRLIMTKSLENILTLAGEYFLQAELTSNVLKTGVVRCCVGQCNNAIPVDTVLTMKKLPITYSNRKENKGGYLCHSCAEQRIGPLAFLTASPEQVRAMERTVENIVLPRHEALLFLVF	–	reduced co-localization of PCNA and FBH1 when either PIP or APIM is mutated
